Article PMC4520770 (Journal of molecular biology, 2015)
5/6‑FAM = 5/6-fluorescein amidite

Target: KSBcl-2 (Kaposi's sarcoma-associated herpesvirus Bcl-2 homolog), c-myc-tagged (Kaposi's sarcoma-associated herpesvirus …, UniProt P90504 1-175)
Assay: fluorescence polarisation

Q: With {5/6‑FAM}-RPQIWIHQGLQRLGAGLNAYYAR-NH2 [KL6-7_D3fA] as the binder, how does the Kd read?
A: Its Kd is 0.18 µM.

Q: With {5/6‑FAM}-RPNIWLTQRLQRTGDGLNAYYAR-NH2 [KScomp] as the binder, how does the Kd read?
A: The Kd was 0.013 µM.

Q: How did the Kd turn out when {5/6‑FAM}-RPQIWIHQGLQRLGDGLNAYYAR-NH2 [KL6-7] was run?
A: Its Kd is 0.0016 µM.

Q: For {5/6‑FAM}-RPQIWIHQGLQRLGDGLNAYKAR-NH2 [KL6-7_Y4eK], which Kd is on record?
A: The Kd was 0.0029 µM.

Q: {5/6‑FAM}-RPIIWIGQEISRVGDRENAYYAR-NH2 [BL6-22] was tested. Which Kd did it give?
A: The Kd was 1.1 µM.

Q: With {5/6‑FAM}-RPIIWIGQEISRVGDRENAYKAR-NH2 [BL6-22_Y4eK] as the binder, how does the Kd read?
A: Its Kd is 0.75 µM.
